The Kd is the constant that tells how readily two partners part at equilibrium.

Some results are limits rather than exact numbers.

This note sets out measurements from publication PMC9352680, “A comprehensive thermodynamic model for RNA binding by the Saccharomyces cerevisiae Pumilio protein PUF4”.

In this data set the target is T1, PUF4 RNA-binding domain (Saccharomyces cerevisiae, UniProt P25339 537-888).
T1 sequence: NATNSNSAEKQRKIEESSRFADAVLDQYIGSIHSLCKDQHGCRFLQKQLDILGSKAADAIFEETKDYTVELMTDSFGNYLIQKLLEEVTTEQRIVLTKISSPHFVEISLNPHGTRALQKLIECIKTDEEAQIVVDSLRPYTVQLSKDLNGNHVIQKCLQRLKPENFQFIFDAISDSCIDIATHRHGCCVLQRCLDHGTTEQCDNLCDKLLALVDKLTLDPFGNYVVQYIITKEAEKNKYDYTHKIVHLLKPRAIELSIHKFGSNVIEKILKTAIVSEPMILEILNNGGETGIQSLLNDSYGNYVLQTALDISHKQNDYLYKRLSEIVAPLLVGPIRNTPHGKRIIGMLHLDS
The experiment in a line: Mg; RNA-MaP; 20 mM Na-HEPES pH 7.4, 30 mM KOAc, 0.75 mM MgCl2, 0.1% Tween-20, 5% glycerol, 0.1 mg/mL BSA, 2 mM DTT; 25 C; 0.0125-409.6 nM protein. The note with it: tags: N-His6-TEV cleaved; C-SNAP kept, Cy3B-labelled; label: tethered on chip by stalled RNA polymerase.

For UCUCUUUGUAUGGCAUUCUCUU (ssRNA) [Ic_S1_P5E.1_K5.1_C5.1_H5.1_A5.1_[T6G]_[A7G]_F5.1_[T8C]_[T9A]_[A10T]_T5.1], the Kd came to 1040 nM.

In turn, UCUCUUUGUAAUCCUUUCUCUU (ssRNA) [Ic_S1_P5E.1_K5.1_C5.1_H5.1_A5.1_[T5A]_[A7C]_F5.1_[T8C]_[A10T]_T5.1] yielded a Kd of 697 nM.

Molecule UCUCUUUGUAUCUUUCUCUU (ssRNA) [Ic_S1_P3E.1_K3.1_C3.1_H3.1_A3.1_[A6C]_F3.1_[A8T]_T3.1] registered a Kd of 32.3 nM.

Molecule UCUCUUUGUAACUGACUCUCUU (ssRNA) [Ic_S1_P5E.1_K5.1_C5.1_H5.1_A5.1_[T5A]_[T6C]_[A7T]_F5.1_[T8G]_[T9A]_[A10C]_T5.1] gave a Kd of 448 nM.

UCUCUUUGUAUUUUUCUCUU (ssRNA) [Ib_S1_P3E.1_K3.1_C3.1_H3.1_A3.1_[A6T]_F3.1_[A8T]_T3.1] gave a Kd of 26.1 nM.

Regarding UCUCUUUGUACGAACCUCUCUU (ssRNA) [Ic_S1_P5E.1_K5.1_C5.1_H5.1_A5.1_[T5C]_[T6G]_F5.1_[T8A]_[T9C]_[A10C]_T5.1], binding was put at a Kd of 1700 nM.

Molecule UCUCUUUGUAAAAUUUUCUCUU (ssRNA) [Ic_S1_P5E.1_K5.1_C5.1_H5.1_A5.1_[T5A]_[T6A]_F5.1_[A10T]_T5.1] displayed a Kd of 23.8 nM.

Molecule UCUCUUUGUAAAUCACUCUCUU (ssRNA) [Ic_S1_P5E.1_K5.1_C5.1_H5.1_A5.1_[T5A]_[T6A]_[A7T]_F5.1_[T8C]_[T9A]_[A10C]_T5.1] had a Kd of 63.1 nM.

UCUCUUUGUACUUCUAUCUCUU (ssRNA) [Ic_S1_P5E.1_K5.1_C5.1_H5.1_A5.1_[T5C]_[A7T]_F5.1_[T8C]_T5.1] returned a Kd of 7.77 nM.

With UCUCUUUGUAUGGCUGUCUCUU (ssRNA) [Ic_S1_P5E.1_K5.1_C5.1_H5.1_A5.1_[T6G]_[A7G]_F5.1_[T8C]_[A10G]_T5.1], the Kd amounted to 2120 nM.

UCUCUUUGUAAGUACGUCUCUU (ssRNA) [Ic_S1_P5E.1_K5.1_C5.1_H5.1_A5.1_[T5A]_[T6G]_[A7T]_F5.1_[T8A]_[T9C]_[A10G]_T5.1] gave a Kd of 2240 nM.

Take UCUCUUUGUAUUCCCAUCUCUU (ssRNA) [Ic_S1_P5E.1_K5.1_C5.1_H5.1_A5.1_[A7C]_F5.1_[T8C]_[T9C]_T5.1]: the Kd was determined as 587 nM.

Regarding UCUCUUUGUAAGUAUAUCUCUU (ssRNA) [Ic_S1_P5E.1_K5.1_C5.1_H5.1_A5.1_[T5A]_[T6G]_[A7T]_F5.1_[T8A]_T5.1], binding was characterised by a dissociation constant (Kd) of 95 nM.

For UCUCUUUGUAUCGCCGUCUCUU (ssRNA) [Ic_S1_P5E.1_K5.1_C5.1_H5.1_A5.1_[T6C]_[A7G]_F5.1_[T8C]_[T9C]_[A10G]_T5.1], the Kd was over 2300 nM.

With UCUCUUUGUAUAUAAAUCUCUU (ssRNA) [Ic_S1_P5E.1_K5.1_C5.1_H5.1_A5.1_[T6A]_[A7T]_F5.1_[T8A]_[T9A]_T5.1], binding was characterised by a dissociation constant (Kd) of 8.13 nM.

Regarding UCUCUUUGUAAACGCCUCUCUU (ssRNA) [Ic_S1_P5E.1_K5.1_C5.1_H5.1_A5.1_[T5A]_[T6A]_[A7C]_F5.1_[T8G]_[T9C]_[A10C]_T5.1], the affinity, expressed as Kd, was 1060 nM.

For the molecule UCUCUUUGUAGCAGCUUCUCUU (ssRNA) [Ic_S1_P5E.1_K5.1_C5.1_H5.1_A5.1_[T5G]_[T6C]_F5.1_[T8G]_[T9C]_[A10T]_T5.1], the Kd is over 2300 nM.

Take UCUCUUUGUAUGUCCAUCUCUU (ssRNA) [Ic_S1_P5E.1_K5.1_C5.1_H5.1_A5.1_[T6G]_[A7T]_F5.1_[T8C]_[T9C]_T5.1]: the affinity, expressed as Kd, was 363 nM.

The molecule UCUCUUUGUAAGUUUGUCUCUU (ssRNA) [Ic_S1_P5E.1_K5.1_C5.1_H5.1_A5.1_[T5A]_[T6G]_[A7T]_F5.1_[A10G]_T5.1] yielded a Kd of 697 nM.

Molecule UCUCUUUGUACCUCGAUCUCUU (ssRNA) [Ic_S1_P5E.1_K5.1_C5.1_H5.1_A5.1_[T5C]_[T6C]_[A7T]_F5.1_[T8C]_[T9G]_T5.1] yielded an equilibrium dissociation constant (Kd) of 660 nM.

With UCUCUUUGUACAUGUUUCUCUU (ssRNA) [Ic_S1_P5E.1_K5.1_C5.1_H5.1_A5.1_[T5C]_[T6A]_[A7T]_F5.1_[T8G]_[A10T]_T5.1], binding was put at a Kd of 27.2 nM.

Take UCUCUUUGUACUCCCAUCUCUU (ssRNA) [Ic_S1_P5E.1_K5.1_C5.1_H5.1_A5.1_[T5C]_[A7C]_F5.1_[T8C]_[T9C]_T5.1]: the Kd was 1300 nM.

Consider UCUCUUUGUAAGCCAUUCUCUU (ssRNA) [Ic_S1_P5E.1_K5.1_C5.1_H5.1_A5.1_[T5A]_[T6G]_[A7C]_F5.1_[T8C]_[T9A]_[A10T]_T5.1], for which the affinity, expressed as Kd, was 317 nM.

For UCUCUUUGUAAUACUUUCUCUU (ssRNA) [Ic_S1_P5E.1_K5.1_C5.1_H5.1_A5.1_[T5A]_F5.1_[T8C]_[A10T]_T5.1], the Kd worked out at 212 nM.

With UCUCUUUGUAUCCGUGUCUCUU (ssRNA) [Ic_S1_P5E.1_K5.1_C5.1_H5.1_A5.1_[T6C]_[A7C]_F5.1_[T8G]_[A10G]_T5.1], the Kd was 1060 nM.
